{"source": "patent US20240239878A1", "about": "(SHANGHAI QILU PHARMACEUTICAL RESEARCH AND DEVELOPMENT CENTRE, published 2024)", "binders": {"B1": {"name": "DLL3-3 camelid-derived anti-DLL3 chimeric antibody (antibody, human IgG1, V domains shown)", "VH": "DVQLVESGGGSVQAGGSLKLSCKSPTYTISSGYMGWFRQAPGKEREGVAAIYIGGSTTLYADSVKGRFTISADNAEKTVYLQMNTLKPEDSAMYYCAAQLRPNSAYHPLDGRKYNYWGQGTQVTVSS"}, "B2": {"name": "DLL3-122 camelid-derived anti-DLL3 chimeric antibody (antibody, human IgG1, V domains shown)", "VH": "QVQLVESGGGSVQAGGSLRLSCTASGDTYRSYCMGWFRKAPGKEREGVADIVSDGSTSYADSVKGRFTISKDNAKNTLYLQMNSLKPEDTAMYYCAVDRGGSGGYCYTGRYDYWGQGTQVTVSS"}, "B3": {"name": "hDLL3-122 camelid-derived humanized anti-DLL3 antibody (antibody, V domains shown)", "VH": "EVQLVESGGGLVQPGGSLRLSCAASGDTYRSYCMGWFRQAPGKEREGVADIVSDGSTSYADSVKGRFTISRDNSKNTLYLQMNSLRAEDTAVYYCAVDRGGSGGYCYTGRYDYWGQGTLVTVSS"}, "B4": {"name": "hDLL3-3-1 camelid-derived humanized anti-DLL3 antibody (antibody, human IgG1, V domains shown)", "VH": "EVQLVESGGGLVQPGGSLRLSCAASTYTISSGYMGWFRQAPGKEREGVAAIYIGGSTTLYADSVKGRFTISRDNSKNTLYLQMNSLRAEDTAVYYCAAQLRPNSAYHPLDGRKYNYWGQGTLVTVSS"}, "B5": {"name": "hDLL3-3-2 camelid-derived humanized anti-DLL3 antibody (antibody, V domains shown)", "VH": "B4 VH with A23K, A24S, S25P"}, "B6": {"name": "DLL3-26 camelid-derived anti-DLL3 chimeric antibody (antibody, human IgG1, V domains shown)", "VH": "QVQLVESGGGSVQAGGSLRLSCAASGDIYSSSYVGWFRQAPGKEREGVAIIYTSGDSTYYANSVKGRFTISQDKAKKTLYLQMNSLKPEDTAMYYCAARFAIDNSNYWGQGTQVTVSS"}, "B7": {"name": "hDLL3-26 camelid-derived humanized anti-DLL3 antibody (antibody, V domains shown)", "VH": "EVQLVESGGGLVQPGGSLRLSCAASGDIYSSSYVGWFRQAPGKEREGVAIIYTSGDSTYYADSVKGRFTISRDNSKNTLYLQMNSLRAEDTAVYYCAARFAIDNSNYWGQGTLVTVSS"}}, "note": "Numbering of substitutions follows the chain as printed."}
{"target": "T1, Cynomolgus monkey DLL3 on HEK293 cells (HEK293-cyno DLL3) (Cynomolgus monkey, UniProt Q9NYJ7 27-618 (human entry))", "T1 chain": "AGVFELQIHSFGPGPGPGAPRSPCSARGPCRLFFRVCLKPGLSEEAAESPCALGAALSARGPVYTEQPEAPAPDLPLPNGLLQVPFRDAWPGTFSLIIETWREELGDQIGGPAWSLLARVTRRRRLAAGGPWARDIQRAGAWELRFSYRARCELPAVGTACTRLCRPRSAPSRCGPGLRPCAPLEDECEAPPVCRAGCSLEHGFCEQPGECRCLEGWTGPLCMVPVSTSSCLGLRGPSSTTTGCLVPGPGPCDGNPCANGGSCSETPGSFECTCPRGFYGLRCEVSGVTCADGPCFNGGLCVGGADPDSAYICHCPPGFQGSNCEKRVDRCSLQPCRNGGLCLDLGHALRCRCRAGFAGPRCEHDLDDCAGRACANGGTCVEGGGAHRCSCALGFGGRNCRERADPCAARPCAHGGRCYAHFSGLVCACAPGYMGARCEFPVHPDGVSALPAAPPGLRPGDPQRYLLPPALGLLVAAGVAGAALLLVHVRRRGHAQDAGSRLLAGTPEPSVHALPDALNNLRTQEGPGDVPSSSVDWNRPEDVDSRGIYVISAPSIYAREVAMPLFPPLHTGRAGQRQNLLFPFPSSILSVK", "test": "flow cytometry, HEK293-cyno DLL3 cells", "protocol": "SHP-77 and HEK293-cyno DLL3 cells were cultured. The culture medium for SHP-77 cells were RPMI1640+10% FBS, and the culture medium for HEK293 cyno DLL3 cells were DMEM+10% FBS+200 μg/ml Hygromycin. The cells were cultured in a T75 cell culture flask at a 37° C. 5% CO₂ incubator. When using cells, they are washed with sterile DPBS, digested with 0.25% trypsin EDTA for about 5 minutes, and then stopped with a complete medium.\nThe digested cells were centrifuged at 1000 rpm for 5 min at room temperature. The supernatant was discarded and the cells were resuspended in 100 μL of 1% BSA (in PBS). The cells were counted and adjusted to a cell density of 1E6/m. The dilute cells were seeded in a 96-well round-bottom culture plate (corning 3799), and centrifuged at 1500 rpm for 5 min at 4° C. The supernatant was discarded and the cells were stored at 4° C. until use. Antibody samples to be tested were diluted with 1% BSA (in PBS) at a starting concentration of 100 nM, downwards by a 10-fold gradient for 7 concentrations. The cells were resuspended with the diluted antibody at 100 μL/well and incubated for 1 hour at 4° C. The cells were centrifuged at 1500 rpm for 5 minutes at 4° C. and the supernatant was discarded. The cells were resuspended and washed with 160 μL of 1% BSA (in PBS), centrifuged at 1500 rpm for 5 minutes at 4° C. The supernatant was discarded. The secondary antibody (goat anti human IgG Fc PE) was diluted 1:200 with 1% BSA (in PBS) according to the manufacturer's instructions and the cells were resuspended with the diluted secondary antibody, 100 μL/well, and incubated for 0.5 h at 4° C. The cells were centrifuged at 1500 rpm for 5 minutes at 4° C. and the supernatant was discarded. The cells were resuspended and washed with 160 μL of 1% BSA (in PBS), centrifuged at 1500 rpm for 5 minutes at 4° C. The supernatant was discarded. The cells were resuspended in 100 μL of 1% BSA (in PBS), and filtered across a 300 mesh gauze. The mean fluorescence intensity of the PE channels was measured by flow cytometry.\nThe analyzed mean fluorescence intensity was imported into Graphpad to analyze the median-binding concentration (hereinafter referred to as EC50) of antibody and cell and the top mean fluorescence intensity (Top MFI).", "units": {"EC50": "nM", "Top MFI": "MFI"}}
{"binder": "B1", "EC50": 0.08, "Top MFI": 379}
{"binder": "B2", "EC50": 0.58, "Top MFI": 351}
{"binder": "B3", "EC50": 0.99, "Top MFI": 351}
{"binder": "B4", "EC50": 0.22, "Top MFI": 346}
{"binder": "B5", "EC50": 0.15, "Top MFI": 344}
{"binder": "B6", "EC50": 0.54, "Top MFI": 336}
{"binder": "B7", "EC50": 2.24, "Top MFI": 301}
{"target": "T2, human DLL1 (Sino Biological, Cat. No. 11635-H08H) (human, UniProt O00548 18-545)", "T2 construct": "also called family protein DLL1", "T2 sequence": "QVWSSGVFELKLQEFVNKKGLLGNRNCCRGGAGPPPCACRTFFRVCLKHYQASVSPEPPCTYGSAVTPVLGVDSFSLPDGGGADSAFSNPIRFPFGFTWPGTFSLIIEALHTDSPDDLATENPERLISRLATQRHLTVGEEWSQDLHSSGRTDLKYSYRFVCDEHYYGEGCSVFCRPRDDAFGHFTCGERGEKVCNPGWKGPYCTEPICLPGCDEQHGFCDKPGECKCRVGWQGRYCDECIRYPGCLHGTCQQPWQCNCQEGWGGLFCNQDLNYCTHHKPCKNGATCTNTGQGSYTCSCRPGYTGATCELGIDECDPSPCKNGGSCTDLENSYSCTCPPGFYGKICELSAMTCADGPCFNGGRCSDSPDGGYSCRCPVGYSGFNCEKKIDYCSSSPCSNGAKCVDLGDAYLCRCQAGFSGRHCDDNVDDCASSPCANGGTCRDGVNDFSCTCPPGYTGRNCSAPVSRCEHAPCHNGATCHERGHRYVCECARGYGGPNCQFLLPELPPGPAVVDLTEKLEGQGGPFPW", "test": "ELISA, plate coated with human DLL1 at 1 ug/mL, OD 450nm", "protocol": "The antigen was washed three times with PBST, 300 μL/well. The antigen was blocked with 1% BSA (in PBST), 200 μL/well, and incubated at 37° C. for 1.5 hours.\nAntibodies to be tested were diluted with 1% BSA (in PBS) at a starting concentration of 100 nM, downwards by a 10-fold gradient for 7 concentrations. The plates were washed three times with PBST, 300 μL/well. The diluted antibody was added to an ELISA plate at 100 μL/well and incubated at room temperature for 2 hours. The antibodies were washed three times with PBST, 300 μL/well. The secondary antibodies (goat anti-human IgG Fc for DLL4 (HRP), 1:20000 dilution: HRP goat anti-mouse IgG (H+L) for DLL1, 1:10000 dilution) were diluted with 1% BSA in PBST. The diluted secondary antibodies were added to the ELISA plate at 100 μL/well and incubated at room temperature for 1 hour. The plates were washed 6 times with PBST, 300 μL/well. The developing solution (TMA and TMB 1:1 mixed) was prepared. The developing solution was added to the plate, 100 μL/well, and incubated in the dark for 5 min. 50 μL of ELISA stop solution was added to the plate and shaken well.\nOD450s were read on the envision and plotted on the GraphPad for EC₅₀ values."}
{"binder": "B3", "binding result": "no binding (tested: 100 nM)"}
{"binder": "B4", "binding result": "no binding (tested: 100 nM)"}
{"binder": "B5", "binding result": "no binding (tested: 100 nM)"}
{"binder": "B7", "binding result": "no binding (tested: 100 nM)"}
